Source: PMC5113301 (Cell Research, 2016)

B1: seleno-methionine substituted AcrF3 (anti-CRISPR protein encoded by gene 35 from phage JBD5) (natural protein)
chain: MSNTISDRIVARSVIEAARFIQSWEDADPDSLTEDQVLAAAGFAARLHEGLQATVLQRLVDESNHEEYREFKAWEEALLNADGRVASSPFADWGWWYRIANVMLATASQNVGVTWGSRVHGRLMAIFQDKFKQRYEEQA
modifications: seleno-methionine substituted
B2: AcrF3 (as in the PaeCas3-AcrF3 complex) (natural protein, phage JBD5)
chain: B1 chain

How the values were obtained:
crystal structure = target: the molecule itself; assay: crystal structure
cryo-EM structure = target: the molecule itself; assay: cryo-EM structure

Row | Protein | stoichiometry N (crystal structure) | stoichiometry N (cryo-EM structure)
1 | B1 | 2 | 
2 | B2 |  | 2
